Assay results from patent publication US9358302.

How the values were obtained:
Test in all cases: cell-based or functional assay
[1] = molecular target: GBSIII-OVAp (GBSIII conjugated to N-acetylated, C-terminally extended OVA323-339)
[2] = molecular target: scrambled OVA peptide, scOVAp
[3] = molecular target: OVA peptide 323-339 (OVAp)

With “T-cell receptor of DO11.10 transgenic mice that recognizes OVA peptide 323-339 in the context of MHC class II (I-A^d) (TCR)” as the substance, how does the T cell proliferation, [3H]thymidine incorporation, 10 µg GBSIII-OVAp [1] read?
Its T cell proliferation, [3H]thymidine incorporation, 10 µg GBSIII-OVAp is 12700 cpm.

And the fold lower T cell proliferation against the same amount of OVAp [1]?
The fold lower T cell proliferation against the same amount of OVAp was 23 fold.

And the T cell proliferation, [3H]thymidine incorporation [2]?
Its T cell proliferation, [3H]thymidine incorporation is less than 500 cpm.

What about the T cell proliferation, [3H]thymidine incorporation, 2.5 µg OVAp [3] of the same substance?
The T cell proliferation, [3H]thymidine incorporation, 2.5 µg OVAp was 285000 cpm.

What about the T cell proliferation, stimulation index (SI), 0.013 µg OVAp [3] of the same substance?
Its T cell proliferation, stimulation index (SI), 0.013 µg OVAp is 35 SI.

What about the T cell proliferation, stimulation index (SI), 0.13 µg OVAp [3] of the same substance?
The T cell proliferation, stimulation index (SI), 0.13 µg OVAp was 781 SI.

And the T cell proliferation, stimulation index (SI), 1.3 µg OVAp [3]?
The T cell proliferation, stimulation index (SI), 1.3 µg OVAp was 2940 SI.
